One data set concerns the target T1, XBP1/CREBZF heterodimer (Homo sapiens, UniProt P17861).
T1 construct: made in house
Put plainly: Competition FRET assay. As to conditions: 23°C; 10 nM XBP1 (fluorescein) with 50 nM CREBZF (TAMRA); unlabeled design. The format is binding. The protocol: (§1) In the competition form of the assay, a FRET pair was made by mixing 10 nM of the donor-labeled peptide with a specified concentration of the acceptor-labeled peptide in 1 mM TCEP-HCl, and 20 μL of this solution was added to the wells after unlabeled design was titrated in 2-fold dilutions over the wells to a final concentration ranging from 0 to 2.5 μM. The amount of acceptor used varied for each curve, taking into account the Kd of the FRET complex in order to obtain a good lower baseline for fitting purposes. Samples were equilibrated for one hour before reading the plates; repeated reading of the plates over several hours gave no change in signal.
(§2) For the competition experiments, the IC50 was determined in MATLAB by fitting the binding data to the equation signal=a+b−a/(1+x/c)^H , where a and b are the lower and upper baselines, c is the IC50 value, x is the inhibitor concentration, and the Hill coefficient H was set to 1. Ki values were calculated as in Fu et al..

The target in a further data set is T2, ATF4 (Homo sapiens, UniProt P18848).
T2 construct: made in house
T2 sequence (P18848 278-341 limits assumed): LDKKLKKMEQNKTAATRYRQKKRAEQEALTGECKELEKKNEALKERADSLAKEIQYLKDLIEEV
Description: Competition binding assay, unlabeled design vs FITC-labeled design and TAMRA-labeled ATF4. The following applies: unlabeled design mixed with FITC-labeled design and TAMRA-labeled ATF4. The protocol:
as §1, §2

A further data set has as its target T3, ATF4/FOS heterodimer (Homo sapiens, UniProt P18848).
T3 construct: made in house
Put plainly: Competition FRET assay. As to conditions: 37°C; 10 nM ATF4 (fluorescein) with 200 nM FOS (TAMRA); unlabeled design. It is filed as binding. Here is the method:
as §1, §2

The target in the next data set is MAFF (human) (UniProt Q9ULX9). Put plainly: FRET or BRET; direct-binding FRET in 384-well plates; rhodamine-labelled design (acceptor) titrated 0 to 1 uM into 10 nM fluorescein-labelled bZIP (donor); 150 mM KCl, 50 mM potassium phosphate pH 7.4, 0.1% Tween-20, 0.1% BSA; 23 °C.
Sequence of MAFF (human) (Q9ULX9 whole entry): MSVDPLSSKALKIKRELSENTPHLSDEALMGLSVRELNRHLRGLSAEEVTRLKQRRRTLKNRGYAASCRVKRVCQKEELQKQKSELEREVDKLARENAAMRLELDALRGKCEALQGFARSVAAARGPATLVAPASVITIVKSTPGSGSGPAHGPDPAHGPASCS
A further data set addresses NFE2 (human) (UniProt Q16621). The data set is described as above.
The target of a further data set is ATF4 (human) (UniProt P18848). The description is as above.
Sequence of ATF4 (human) (P18848 whole entry): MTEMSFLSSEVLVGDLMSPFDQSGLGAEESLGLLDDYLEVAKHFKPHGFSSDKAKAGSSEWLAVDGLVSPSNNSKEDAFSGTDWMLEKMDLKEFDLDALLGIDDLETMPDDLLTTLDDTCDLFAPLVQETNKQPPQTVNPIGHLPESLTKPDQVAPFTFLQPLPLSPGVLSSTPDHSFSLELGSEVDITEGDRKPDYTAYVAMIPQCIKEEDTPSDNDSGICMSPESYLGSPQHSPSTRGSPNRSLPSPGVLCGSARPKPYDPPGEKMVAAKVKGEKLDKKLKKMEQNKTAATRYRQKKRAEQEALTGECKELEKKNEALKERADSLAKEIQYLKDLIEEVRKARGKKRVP
For a further data set, the target named is ATF6B (Homo sapiens, UniProt Q99941). Put plainly: FRET or BRET; direct-binding FRET in 384-well plates; rhodamine-labelled design (acceptor) titrated 0 to 1 uM into 10 nM fluorescein-labelled bZIP (donor); 150 mM KCl, 50 mM potassium phosphate pH 7.4, 0.1% Tween-20, 0.1% BSA; 37 °C. In general terms: BRET reads energy transfer from a luciferase to a nearby fluorophore.
Sequence of ATF6B (Q99941 whole entry): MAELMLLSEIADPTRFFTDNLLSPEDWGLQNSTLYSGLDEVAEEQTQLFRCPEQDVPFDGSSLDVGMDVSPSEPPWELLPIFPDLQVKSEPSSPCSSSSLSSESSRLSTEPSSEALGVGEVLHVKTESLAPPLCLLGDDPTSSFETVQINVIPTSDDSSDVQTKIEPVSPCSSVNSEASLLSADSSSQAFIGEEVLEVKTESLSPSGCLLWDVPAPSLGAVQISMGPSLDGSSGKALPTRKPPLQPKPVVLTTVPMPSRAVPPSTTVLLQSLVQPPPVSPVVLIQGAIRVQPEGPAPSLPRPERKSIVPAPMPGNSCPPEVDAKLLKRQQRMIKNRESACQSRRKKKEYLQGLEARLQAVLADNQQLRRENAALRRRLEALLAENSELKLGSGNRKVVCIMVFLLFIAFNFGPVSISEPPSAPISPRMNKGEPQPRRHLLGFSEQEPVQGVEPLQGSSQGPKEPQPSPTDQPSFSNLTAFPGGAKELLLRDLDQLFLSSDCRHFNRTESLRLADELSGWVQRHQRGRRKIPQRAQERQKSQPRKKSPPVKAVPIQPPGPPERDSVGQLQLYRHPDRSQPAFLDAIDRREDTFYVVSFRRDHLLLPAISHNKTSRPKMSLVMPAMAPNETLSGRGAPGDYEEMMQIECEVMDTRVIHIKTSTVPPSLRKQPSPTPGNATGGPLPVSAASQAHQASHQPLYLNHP

The next data set deals with CREB1 (human) (UniProt P16220). Described as above.
Sequence of CREB1 (human) (P16220 whole entry): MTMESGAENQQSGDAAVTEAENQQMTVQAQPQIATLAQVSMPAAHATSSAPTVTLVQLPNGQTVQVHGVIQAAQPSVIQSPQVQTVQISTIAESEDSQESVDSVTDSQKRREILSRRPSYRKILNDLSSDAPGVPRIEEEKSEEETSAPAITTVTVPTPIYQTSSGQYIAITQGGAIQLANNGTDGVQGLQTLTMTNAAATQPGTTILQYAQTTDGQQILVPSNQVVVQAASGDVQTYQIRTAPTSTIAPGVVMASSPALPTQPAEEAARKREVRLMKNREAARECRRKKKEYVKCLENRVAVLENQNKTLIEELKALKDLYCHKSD
A further data set has as its target MAFG (Homo sapiens, UniProt O15525). The description is as above.
The target of data set [1] is Activating Transcription Factor (ATF) 3 (human) (UniProt P18847). The description is as above.
Sequence of Activating Transcription Factor (ATF) 3 (human) (P18847 whole entry): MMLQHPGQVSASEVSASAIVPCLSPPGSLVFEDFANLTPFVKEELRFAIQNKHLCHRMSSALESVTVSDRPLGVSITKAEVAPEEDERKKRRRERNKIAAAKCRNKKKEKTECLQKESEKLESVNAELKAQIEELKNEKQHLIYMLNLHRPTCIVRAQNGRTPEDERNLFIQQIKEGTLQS
The target in another data set is NFE2L3 (human) (UniProt Q9Y4A8). Described as above.
Sequence of NFE2L3 (human) (Q9Y4A8 whole entry): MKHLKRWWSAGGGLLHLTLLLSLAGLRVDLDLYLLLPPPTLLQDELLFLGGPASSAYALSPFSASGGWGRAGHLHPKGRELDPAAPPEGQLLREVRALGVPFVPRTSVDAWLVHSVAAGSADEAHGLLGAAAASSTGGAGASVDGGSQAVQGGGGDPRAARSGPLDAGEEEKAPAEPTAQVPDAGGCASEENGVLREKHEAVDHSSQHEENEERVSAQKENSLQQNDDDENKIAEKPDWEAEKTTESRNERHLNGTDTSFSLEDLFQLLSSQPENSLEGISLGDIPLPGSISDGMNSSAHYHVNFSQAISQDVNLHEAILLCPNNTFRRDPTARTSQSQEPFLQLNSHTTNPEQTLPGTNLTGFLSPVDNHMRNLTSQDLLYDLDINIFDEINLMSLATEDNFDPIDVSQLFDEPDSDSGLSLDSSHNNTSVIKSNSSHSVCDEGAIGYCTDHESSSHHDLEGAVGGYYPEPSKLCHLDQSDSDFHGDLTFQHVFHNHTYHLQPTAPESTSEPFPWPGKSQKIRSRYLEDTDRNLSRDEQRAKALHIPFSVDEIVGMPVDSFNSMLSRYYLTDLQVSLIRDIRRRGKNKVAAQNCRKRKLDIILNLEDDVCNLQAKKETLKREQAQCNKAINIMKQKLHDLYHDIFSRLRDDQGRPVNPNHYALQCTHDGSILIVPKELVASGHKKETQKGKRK
Data set [2] concerns the molecule itself. Put plainly: FRET or BRET; direct-binding FRET of the designed peptide with itself (row 'homodimer'; dimer to monomers); acceptor-labelled design titrated into donor-labelled design by note 1 of the tables; 37 °C.
For data set [3], the target named is ATF5-d1 labeled at the C-terminus. Description: FRET or BRET; direct-binding FRET of the designed peptide with itself (row 'homodimer'; dimer to monomers); acceptor-labelled design titrated into donor-labelled design by note 1 of the tables; 23 °C.
Another data set addresses BACH2 (Homo sapiens, UniProt Q9BYV9). Description: FRET or BRET; direct-binding FRET in 384-well plates; rhodamine-labelled design (acceptor) titrated 0 to 1 uM into 10 nM fluorescein-labelled bZIP (donor); 150 mM KCl, 50 mM potassium phosphate pH 7.4, 0.1% Tween-20, 0.1% BSA; 37 °C.
In a further data set the target is BATF3 (human) (UniProt Q9NR55). The description is as above.
Sequence of BATF3 (human) (Q9NR55 whole entry): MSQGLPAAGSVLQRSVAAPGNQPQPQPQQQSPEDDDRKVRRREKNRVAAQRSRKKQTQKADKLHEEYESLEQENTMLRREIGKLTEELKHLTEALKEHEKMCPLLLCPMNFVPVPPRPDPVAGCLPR
For a further data set, the target named is NFE2L1 (Homo sapiens, UniProt Q14494). The data set is described as above.
Sequence of NFE2L1 (Q14494 whole entry): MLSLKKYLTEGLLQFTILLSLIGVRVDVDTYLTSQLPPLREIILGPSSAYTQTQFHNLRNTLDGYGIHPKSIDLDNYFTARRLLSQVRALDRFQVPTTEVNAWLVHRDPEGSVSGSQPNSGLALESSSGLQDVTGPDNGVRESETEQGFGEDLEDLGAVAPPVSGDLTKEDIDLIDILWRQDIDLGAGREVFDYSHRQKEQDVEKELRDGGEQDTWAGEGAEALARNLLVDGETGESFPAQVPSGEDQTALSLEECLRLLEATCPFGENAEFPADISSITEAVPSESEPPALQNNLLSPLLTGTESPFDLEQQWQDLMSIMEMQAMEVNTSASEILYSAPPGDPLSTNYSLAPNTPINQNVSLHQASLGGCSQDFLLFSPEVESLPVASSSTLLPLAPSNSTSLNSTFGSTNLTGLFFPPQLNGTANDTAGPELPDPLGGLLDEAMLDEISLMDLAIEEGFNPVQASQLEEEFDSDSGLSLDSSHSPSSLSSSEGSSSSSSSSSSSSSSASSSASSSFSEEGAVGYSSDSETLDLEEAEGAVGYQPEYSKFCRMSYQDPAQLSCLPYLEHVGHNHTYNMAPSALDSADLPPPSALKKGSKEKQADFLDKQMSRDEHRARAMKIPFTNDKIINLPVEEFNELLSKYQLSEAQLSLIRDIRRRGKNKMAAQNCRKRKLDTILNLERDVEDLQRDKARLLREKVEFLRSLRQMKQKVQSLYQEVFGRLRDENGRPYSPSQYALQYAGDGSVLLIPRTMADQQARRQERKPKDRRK

“And” between values parts separate entries of the source, which are not always exact repeats. Identical values can stand only once. Where no end group is shown, it is not given here.

Sequence of NFE2 (human) (Q16621 whole entry): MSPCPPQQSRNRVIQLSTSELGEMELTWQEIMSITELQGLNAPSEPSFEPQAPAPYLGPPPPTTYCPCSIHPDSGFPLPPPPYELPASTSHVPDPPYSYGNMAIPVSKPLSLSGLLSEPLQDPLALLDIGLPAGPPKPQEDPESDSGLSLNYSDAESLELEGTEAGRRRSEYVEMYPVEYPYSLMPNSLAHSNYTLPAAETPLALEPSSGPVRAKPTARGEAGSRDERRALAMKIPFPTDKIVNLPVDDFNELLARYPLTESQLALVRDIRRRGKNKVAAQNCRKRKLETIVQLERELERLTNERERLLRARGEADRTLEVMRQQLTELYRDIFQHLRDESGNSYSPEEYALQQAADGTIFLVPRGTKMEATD
Sequence of BACH2 (Q9BYV9 whole entry): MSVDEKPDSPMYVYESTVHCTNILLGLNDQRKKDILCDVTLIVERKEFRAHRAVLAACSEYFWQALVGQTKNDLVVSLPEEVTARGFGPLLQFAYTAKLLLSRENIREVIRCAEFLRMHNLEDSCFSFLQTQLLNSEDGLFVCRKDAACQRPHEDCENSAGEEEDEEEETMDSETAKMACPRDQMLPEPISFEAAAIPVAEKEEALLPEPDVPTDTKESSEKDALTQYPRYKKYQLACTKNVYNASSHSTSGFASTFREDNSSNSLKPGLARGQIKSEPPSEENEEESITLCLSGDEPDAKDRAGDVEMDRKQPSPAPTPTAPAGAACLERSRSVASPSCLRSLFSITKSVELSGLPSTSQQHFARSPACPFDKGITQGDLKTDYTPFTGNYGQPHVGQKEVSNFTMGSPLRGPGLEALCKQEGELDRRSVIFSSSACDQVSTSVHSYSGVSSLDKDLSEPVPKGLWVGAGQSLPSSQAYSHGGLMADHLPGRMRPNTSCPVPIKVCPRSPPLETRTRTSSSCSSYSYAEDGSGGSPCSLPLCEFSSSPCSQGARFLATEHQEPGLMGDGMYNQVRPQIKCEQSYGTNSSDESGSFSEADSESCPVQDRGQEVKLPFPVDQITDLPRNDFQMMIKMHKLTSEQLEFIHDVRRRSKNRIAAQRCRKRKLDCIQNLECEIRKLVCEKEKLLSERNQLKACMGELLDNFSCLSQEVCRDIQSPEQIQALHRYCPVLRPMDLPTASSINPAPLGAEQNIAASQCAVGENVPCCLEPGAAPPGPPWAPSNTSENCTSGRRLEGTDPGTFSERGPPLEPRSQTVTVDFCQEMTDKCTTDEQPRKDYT
Sequence of MAFG (O15525 whole entry): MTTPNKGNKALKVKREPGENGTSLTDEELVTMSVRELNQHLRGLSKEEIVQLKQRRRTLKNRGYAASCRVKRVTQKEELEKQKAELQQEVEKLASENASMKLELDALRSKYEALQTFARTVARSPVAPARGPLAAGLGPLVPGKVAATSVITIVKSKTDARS

Take “EREAQLENRVAHLKEKNQELKAQNLHLKEALSEAQNRNQELKNDA [XBP1-d1]”: the IC50 – broadly, the point on the concentration scale where inhibition reaches its midpoint – on XBP1/CREBZF heterodimer turned out to be 136 nM.
“KRIAYLRQRIAELRNENHVLESRIQRMEKEKDALQQDRDHLEYEL [ATF5-d1]”: affinity at ATF4 was put at a Ki of 6 nM.
On to “NQIKTLRTRLSKLRKDNLQLEKDIANLERKAKDLRAEKEQLEYEL [ATF4-d1]”, for which the IC50 at ATF4/FOS heterodimer is 279 nM. In addition, the inhibition constant (Ki) (in general, a measure of affinity in units of concentration, obtained from inhibition or displacement) at ATF4 was 48 nM.

B1: ATF4-d1 labeled at the C-terminus (designed binder)
chain: GESKEYKKGSGSNQIKTLRTRLSKLRKDNLQLEKDIANLERKAKDLRAEKEQLEYELGC
modifications: also: C59 label by assay: Rhodamine Red C2-maleimide or fluorescein-5-maleimide
notes: solubility linker after the His6 tag; added to the C-terminus for labeling; one molecule for the rhodamine- and the fluorescein-labelled form; the assay tells which label stood there; also called ATF4-d1-Rhodamine; ATF4-d1-FITC; source: E. coli RP3098, purified (Ni-NTA under denaturing conditions, reverse-phase HPLC)
Consider B1, for which the Kd (usually the free concentration of one partner at which half of the binding sites on the other are occupied at equilibrium, for simple one-to-one binding) with MAFF (human) was 623 nM; with NFE2 (human), more than 5000 nM; with ATF4 (human), 1 nM; in the data set with ATF6B, more than 5000 nM; with CREB1 (human), more than 5000 nM; with MAFG it was more than 5000 nM. For the same molecule, the Kd in data set [1] was more than 5000 nM; with NFE2L3 (human), more than 5000 nM; in data set [2] it was 1820 nM and 1110 nM and 2520 nM.

B2: ATF5-d1 labeled at the C-terminus (designed binder)
chain: GESKEYKKGSGSKRIAYLRQRIAELRNENHVLESRIQRMEKEKDALQQDRDHLEYELGC(Rhodamine Red C2‑maleimide)
modifications: not fully specified
On to B2, for which the Kd with MAFF (human) was more than 5000 nM; with NFE2 (human), more than 5000 nM; in the data set with ATF4 (human), 1 nM; in [3], 1000 nM; with BACH2, more than 5000 nM; in the data set with BATF3 (human) it was more than 5000 nM. In the data set with NFE2L1, the Kd is more than 5000 nM.
